From IntAct's records for PubMed 22648170

B1: Disabled homolog 2 (Mus musculus), P98078-1 (parent)
chain: MSNEVETSTTNGQPDQQAAPKAPSKKEKKKGSEKTDEYLLARFKGDGVKYKAKLIGIDDVPDARGDKMSQDSMMKLKGMAAAGRSQGQHKQRIWVNISLSGIKIIDEKTGVIEHEHPVNKISFIARDVTDNRAFGYVCGGEGQHQFFAIKTGQQAEPLVVDLKDLFQVIYNVKKKEEDKKKVEEANKAEENGSEALMTLDDQANKLKLGVDQMDLFGDMSTPPDLNSPTESKDILLVDLNSEIDTNQNSLRENPFLTNGVTSCSLPRPKPQASFLPENAFSANLNFFPTPNPDPFRDDPFAQPDQSAPSSFDSLTSPDQKKASLSSSSTPQSKGPLNGDTDYFGQQFDQLSNRTGKPEAQGGPWPYPSSQTQQAVRTQNGVSEREQNGFHIKSSPNPFVGSPPKGLSVPNGVKQDLESSVQSSAHDSIAIIPPPQSTKPGRGRRTAKSSANDLLASDIFASEPPGQMSPTGQPAVPQSNFLDLFKGNAPAPVGPLVGLGTVPVTPPQAGPWTPVVYSPSTTVVPGAIISGQPPSFRQPLVFGTTPAVQVWNQSPSFATPASPPPPTVWCPTTSVAPNAWSSTSPLGNPFQSNNIFPPPTMSTQSSPQPMMSSVLATPPQPPPRNGPLKDIPSDAFTGLDPLGDKEVKEVKEMFKDFQLRQPPLVPSRKGETPPSGTSSAFSSYFNNKVGIPQEHVDHDDFDANQLLNKINEPPKPAPRQGVLLGTKSADNSLENPFSKGFSSSNPSVVSQPASSDPHRSPFGNPFA
partner: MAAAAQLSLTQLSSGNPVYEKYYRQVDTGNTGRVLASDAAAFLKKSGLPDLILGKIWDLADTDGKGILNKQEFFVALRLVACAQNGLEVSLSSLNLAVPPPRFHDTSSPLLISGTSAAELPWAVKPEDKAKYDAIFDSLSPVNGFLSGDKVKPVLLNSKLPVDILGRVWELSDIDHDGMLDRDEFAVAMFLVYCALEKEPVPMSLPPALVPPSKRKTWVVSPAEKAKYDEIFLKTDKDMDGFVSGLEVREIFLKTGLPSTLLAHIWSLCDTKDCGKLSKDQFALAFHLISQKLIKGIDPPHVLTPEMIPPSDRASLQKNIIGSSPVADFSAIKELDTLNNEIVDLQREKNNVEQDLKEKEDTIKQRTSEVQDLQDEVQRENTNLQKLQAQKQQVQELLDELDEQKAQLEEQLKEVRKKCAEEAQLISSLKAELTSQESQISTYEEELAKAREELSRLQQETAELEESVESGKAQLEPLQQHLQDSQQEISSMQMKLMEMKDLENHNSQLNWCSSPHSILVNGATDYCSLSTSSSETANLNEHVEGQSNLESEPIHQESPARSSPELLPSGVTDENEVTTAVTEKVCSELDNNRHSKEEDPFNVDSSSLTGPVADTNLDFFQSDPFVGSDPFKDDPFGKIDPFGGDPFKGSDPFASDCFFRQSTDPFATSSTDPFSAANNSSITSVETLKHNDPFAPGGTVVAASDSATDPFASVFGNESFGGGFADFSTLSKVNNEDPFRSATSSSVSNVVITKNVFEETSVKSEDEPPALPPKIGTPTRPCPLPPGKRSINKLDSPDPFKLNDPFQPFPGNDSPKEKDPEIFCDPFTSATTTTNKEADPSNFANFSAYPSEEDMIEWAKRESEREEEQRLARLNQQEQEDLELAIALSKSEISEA
B2: Disabled homolog 2 (Mus musculus), P98078-1 (parent)
chain: B1 chain

Variants of: B1
Details: with eps15_human EPS15, P42566

effect of a mutation on the interaction | Variant
disrupting interaction | F589V;F736V;F765V

Variants of: B2
Details: with itsn1_mouse Itsn1, Q9Z0R4
Chain of itsn1_mouse Itsn1, Q9Z0R4 (Q9Z0R4 whole entry): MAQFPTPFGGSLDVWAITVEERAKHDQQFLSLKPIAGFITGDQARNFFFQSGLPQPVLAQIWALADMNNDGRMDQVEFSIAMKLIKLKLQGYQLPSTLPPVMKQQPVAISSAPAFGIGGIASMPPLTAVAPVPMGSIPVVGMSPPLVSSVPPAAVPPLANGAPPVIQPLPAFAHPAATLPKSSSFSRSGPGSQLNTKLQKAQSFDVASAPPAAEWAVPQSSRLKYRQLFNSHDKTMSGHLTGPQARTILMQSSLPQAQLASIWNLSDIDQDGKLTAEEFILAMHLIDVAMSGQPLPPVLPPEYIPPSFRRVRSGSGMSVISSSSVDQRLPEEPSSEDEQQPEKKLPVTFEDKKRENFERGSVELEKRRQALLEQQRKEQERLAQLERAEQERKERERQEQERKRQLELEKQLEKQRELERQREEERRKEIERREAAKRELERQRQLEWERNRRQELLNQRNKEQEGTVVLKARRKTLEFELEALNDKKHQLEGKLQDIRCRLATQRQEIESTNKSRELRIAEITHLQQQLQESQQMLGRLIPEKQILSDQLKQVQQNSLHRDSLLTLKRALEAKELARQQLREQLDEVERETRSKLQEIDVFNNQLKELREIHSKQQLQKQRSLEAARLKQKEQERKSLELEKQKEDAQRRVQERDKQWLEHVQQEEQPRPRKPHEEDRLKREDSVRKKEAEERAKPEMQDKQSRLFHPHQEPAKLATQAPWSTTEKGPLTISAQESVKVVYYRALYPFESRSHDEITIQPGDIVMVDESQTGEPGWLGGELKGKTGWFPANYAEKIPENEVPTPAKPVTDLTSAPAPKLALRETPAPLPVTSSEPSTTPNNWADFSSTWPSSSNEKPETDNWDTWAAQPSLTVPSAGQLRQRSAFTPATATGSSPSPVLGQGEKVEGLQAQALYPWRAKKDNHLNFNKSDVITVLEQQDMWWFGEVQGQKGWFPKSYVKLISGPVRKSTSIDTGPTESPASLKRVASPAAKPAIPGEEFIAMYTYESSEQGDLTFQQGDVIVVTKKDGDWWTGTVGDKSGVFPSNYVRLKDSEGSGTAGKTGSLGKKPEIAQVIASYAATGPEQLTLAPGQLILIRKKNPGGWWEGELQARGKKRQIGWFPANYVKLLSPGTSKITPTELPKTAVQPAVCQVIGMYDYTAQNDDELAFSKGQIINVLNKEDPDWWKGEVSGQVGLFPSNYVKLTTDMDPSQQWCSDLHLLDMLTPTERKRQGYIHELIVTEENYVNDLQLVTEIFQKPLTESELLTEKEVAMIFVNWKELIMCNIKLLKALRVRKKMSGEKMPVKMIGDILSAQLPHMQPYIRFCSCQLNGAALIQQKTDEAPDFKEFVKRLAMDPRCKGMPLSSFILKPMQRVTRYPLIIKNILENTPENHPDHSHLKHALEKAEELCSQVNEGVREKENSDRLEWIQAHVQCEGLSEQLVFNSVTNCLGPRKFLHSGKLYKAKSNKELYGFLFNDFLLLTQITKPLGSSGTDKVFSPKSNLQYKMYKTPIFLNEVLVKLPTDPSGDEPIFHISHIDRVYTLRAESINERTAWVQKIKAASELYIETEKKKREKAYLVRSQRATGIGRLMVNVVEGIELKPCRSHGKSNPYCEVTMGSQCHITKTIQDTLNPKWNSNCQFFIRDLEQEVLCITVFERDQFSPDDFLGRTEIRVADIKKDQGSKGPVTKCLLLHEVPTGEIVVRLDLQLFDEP

effect of a mutation on the interaction | Variant
decreasing interaction | F589V;F736V;F765V
disrupting interaction | F255V;F398V;F589V;F736V;F765V
decreasing interaction | F255V;F398V
